Results as given in article PMC11076555, “Dishevelled2 activates WGEF via its interaction with a unique internal peptide motif of the GEF” (Communications Biology, 2024).

T1: Dvl2^PDZ (PDZ domain of human Dishevelled2) (Homo sapiens, UniProt O14641)
T1 construct: introducing a stop codon after C354 residue of Dvl2^PDZ to eliminate the fused peptide, cloned at the C-termini of PDZ; 6xHis (N, cleaved yes); host or cells: E. coli Rosetta (DE3)
T1 sequence (O14641 267-339 limits assumed): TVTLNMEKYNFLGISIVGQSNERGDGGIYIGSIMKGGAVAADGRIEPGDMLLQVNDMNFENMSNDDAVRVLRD


What was measured:
[1] = molecular target: T1, Dvl2^PDZ (PDZ domain of human Dishevelled2); assay: Microscale thermophoresis (MST) binding to Dvl2^PDZ; conditions: Monolith NT.115, 50 nM Red-maleimide labelled Dvl2^PDZ, 10 mM Tris–HCl pH 8, 150 mM NaCl, 2 mM DTT, 5% glycerol, 0.05% Tween20, 30 min at 25 °C, peptides diluted 1:2 16 times from ~3.4 mM, hWGEF 138–0.0042 µM, Kd fit model, triplicates, read-out: Kd (dissociation constant) for Dvl2^PDZ
Experimental: MST experiments were performed using Monolith NT.115 instrument from Nanotemper technologies. Dvl2^PDZ domain was fluorescently labelled as per the instructions, using Monolith Redmaleimide 2nd generation-cysteine reactive label. The experimental condition consists of 10 mM Tris–HCl pH8, 150 mM NaCl, 2 mM DTT, 5% Glycerol and 0.05% Tween20. For Dvl2^PDZ-peptide affinity determination, synthetic WGEF peptides were serially diluted (1:2) 16 times, starting from an approximate concentration of 3.4 mM. 50 nM of fluorescently labelled Dvl2^PDZ domain was added to the serially diluted peptides, followed by incubation at 25 °C for 30 minutes. Thermophoresis signals were recorded at 20% of excitation power and 40% MST at 25 °C. Data was fitted using the Kd fit model in the MO. Affinity Analysis v2.3 software. Like peptides, hWGEF (330–581) protein was serially diluted to obtain a protein concentration range of 138–0.0042 µM. Experimental conditions were the same as mentioned above for peptides. […]
Guanine nucleotide exchange assays were performed in triplicates. Fluorescence decrease was fitted using a single exponential decay mode in GraphPad Prism. […] Statistical significance was calculated using ordinary One-way ANOVA with multiple comparisons. * Represents adjust P value with statistical significance of ****P < 0.0001, ***P < 0.001, **P < 0.01 and *P ≤ 0.01. […]

xWGEF330 = assay: In vitro guanine nucleotide exchange (GEF) assay, activation of xWGEF330 by Dvl2^PDZ; type: biochemical, Xenopus laevis; conditions: 5 µM xWGEF330, 2 µM Mant-GDP loaded RhoA, 25 °C, triplicates
Experimental: Guanine nucleotide exchange assays were carried out using RhoA loaded with fluorescently labelled Mant-GDP[63],[64]. Briefly, 150 μM of RhoA was incubated with 5 Molar excess of fluorescent label, i.e., Mant-GDP in a buffer containing 10 mM Tris pH 8, 150 mM NaCl, 2 mM DTT, 5 mM EDTA, 0.5 mM MgCl2 and 5% Glycerol. The reaction was incubated on ice for 30 min, followed by the addition of 10 mM MgCl2 to stop the reaction. Excess Mant-GDP was removed through buffer exchange and Mant-GDP loaded RhoA was concentrated and stored at −80 °C. For assays, 2 μM of Mant-GDP loaded RhoA was incubated with 5 μM of xWGEF in the presence or absence of hDvl2^PDZ (0 μM, 25 μM and 50 μM) for 30 min at 25 °C. […] Once the fluorescence was stable, excess GTP (10x of labelled GTPase) was added to start the exchange reaction. […] A decrease in fluorescence was recorded using a BioTek Cytation5 plate reader with excitation and emission of 360 and 440 nm, respectively. Fluorescence was normalized and decrease was fitted using a single exponential decay mode in GraphPad Prism. […]
Guanine nucleotide exchange assays were performed in triplicates. Fluorescence decrease was fitted using a single exponential decay mode in GraphPad Prism. […]

Kd [1]	Molecule	Change in GEF activity of xWGEF330 (xWGEF330; 25 µM Dvl2^PDZ)	Change in GEF activity of xWGEF330 (xWGEF330; 50 µM Dvl2^PDZ (10-fold excess))
7.9 ± 0.3 µM	hWGEF: recombinant human WGEF construct, residues from 330 to 581 (protein, left off: GST, N-terminal, cleaved) PPRANLSPSSSFRAQRSARGSTFSLWQDIPDVRGSGVLATLSLRDCKLQEAKFELITSEASYIHSLSVAVGHFLGSAELSECLGAQDKQWLFSKLPEVKSTSERFLQDLEQRLEADVLRFSVCDVVLDHCPAFRRVYLPYVTNQAYQERTYQRLLLENPRFPGILARLEESPVCQRLPLTSFLILPFQRITRLKMLVENILKRTAQGSEDEDMATKAFNALKELVQECNASVQSMKRTEELIHLSKKIHFEG	–	–
–	Dvl2^PDZ: recombinant PDZ domain of human Dishevelled2 (protein, Monolith Red-maleimide 2nd generation cysteine-reactive fluorescent label (in the MST experiments); left off: His6, N-terminal, cleaved, recombinant PDZ domain of human Dishevelled2) MSLNIITVTLNMEKYNFLGISIVGQSNERGDGGIYIGSIMKGGAVAADGRIEPGDMLLQVNDMNFENMSNDDAVRVLRDIVHKPGPIVLTVAKC	did not show any observable change	fourfold increase
